Source: the supplement of paper PMC9170038

Tested on: K4 kissing-loop RNA reporter
Experiment: apparent KD of K4 kissing-loop reporter; higher = weaker reporter binding
Details: Eterna round: R107; input ligand: none
Experimental: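 RNA-MaP round R107: designed RNA switches with theophylline, tryptophan, arginine or FMN aptamers are transcribed on-chip within common flanks. They are titrated with a labelled K4 kissing-loop RNA reporter in RNA-MaP buffer (100 mM Tris pH 7.5, 80 mM KCl, 4 mM MgCl2), without ligand or with the indicated ligand. Median apparent KD per design.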
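Also: bound reporter read as fluorescence of individual clusters on recovered sequencing chips by microscopy, with normalized cluster intensities fitted with a binding model.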

Going from “UUUAUAUUGUCGGCCGCCACUGGAUUAAUAUUUGUAUAAUCUAGUUCAAAGUGAUGUUUUGAGUCCAGGACCGGGACAUUUGAUA [JR_Nu_ExcTryptoB_Sub029]” to “AGGACGUGAGAAGAUACCAGAGAAUAAUGCAGUGAUGUUGCUAAAUAUAAUUUAAUAUAACUCCCUUGGCAGCUUAAGUUAGUCU [Theophylline b same state]”, the “apparent KD of K4 kissing-loop reporter” value falls from 624 nM to 98.7 nM (6.3-fold).

Compared with “UAGGGUUGAAAAGGAUAUUUACCCUAUGUCAACGAGUGAUGUUCGUGGACAUUAGGCACAACUCGUAAAGAAGGUUUCCAGACUC [theeternabot_sameState_KL_FMN_B_39]”, “GCGCGUGUUAAAGGAUAUAGCAGGUGAUACAAGAAAGUGAGUGAUGUUUAUGUAGAUGAUGAUAUGUUAGAAGGUUAACACGCGC [abcdefghijklmnopqr]” is 10-fold higher in “apparent KD of K4 kissing-loop reporter” value: 95 nM for the first, 966 nM for the second.

“AAUAUAGUGAUGUUAUAUAAGAAGGAGUUACGAGGACCGGUACGGCCGCCACUCGAAACGAGUGAGGAUUUGGGAGAUUGGGUCC [SSTryptA.K]” and “UGGAGUGCCUGGUCGUCACUAUGCCAACCACGAGGACCGGUACGGCCGCCACUCGUGAGGGAUAUUCAGAAAGUGAUGUUUUUUG [theeternabot_exclusion_KL_Trp_A_1]” are within 1.5-fold of each other in “apparent KD of K4 kissing-loop reporter” value: 430 nM for the first, 529 nM for the second.

“UUUUAUUAAUACUUCUAGUGAUGUUAGAUACGAGGACCGGUACGGCCGCCACUCGCUUAUUGGUUUAUAUAUUUUAUAUUCUUUA [JR_SSTryptoA_Sub014]” and “AGAGGUCCCAGUGAUGUUGGUGCGUUUGGUCGAGGACCGGUACGGCCGCCACUCGUUCAUAGUAAGCCCUCUUUAGUGUUUCUAA [theeternabot_sameState_KL_Trp_A_9]” are within 1.5-fold of each other in “apparent KD of K4 kissing-loop reporter” value: 342 nM for the first, 428 nM for the second.

Compared with “AGAUUCGACACGGCCGCCACUUGUGGUGGAUUAUCCUAUGUAAGACAUGAGUGAUGUUCAUGUACAAGGACCGGGUGUUGAGUCU [KL-XTryp-B4 #analogue]”, “CGAGUCAAUUCAGAUACCAGCCAAUUAAAGUCGAGUGAUGUUCGACAAUGAACAUCCAAAGGCCCUUGGCAGCUGAAUUGGGAAC [Same State Theophylline B GF 18]” is 1.7-fold lower in “apparent KD of K4 kissing-loop reporter” value: 199 nM for the first, 114 nM for the second.

Going from “GGAGUUACCUGGGAUACCAGUCGGAGUCUCAGAGCUCGGAGUGAUGUUCUGGGAUGUUUCGGCCCUUGGCAGCUCUGGGACUCCU [#2 Exclusion - Theophylline B Attempt #17 (HarryS)]” to “UCUGGAGCAUAUGAUACCAGCAGUGAGAGACAGGAAGUAUAGUGAUGUUAUAUGAGAGAAUGCCCUUGGCAGCGUGUGCAGUGGG [SSTheophylB.O]”, the “apparent KD of K4 kissing-loop reporter” value falls from 747 nM to 108 nM (6.9-fold).

Going from “GUCUCAAAAGAGGCAAGCACUAACGAGGACAAGGAUAUCAUCUCAAUGAGAAGGUGUCCUCGUCCUUAGUGAUGUUAAGGAGUGC [Omei KL FMN A SS E v5]” to “AGGUGCUACGGAAGGAGCGCACCAGUGAUGUUGGUGUGUGACCGUGACAUGGCAGUCAAGGUGCAGGUAGGUCGCCGUGGCCAUA [Rigela]”, the “apparent KD of K4 kissing-loop reporter” value falls from 211 nM to 140 nM (1.5-fold).

First: GGAUUGCCAGUGAUGUUGGCAUAAACUGAAGGAGCGCGUGAAAACGCAGGUAGGUCGCAGAACCUUGCCAACUAUUUUAUUUACC [Ex Arginine A K4 23]
Second: AACGUUUUGAGAAGGAGCGCGUUCAGCAGUGAUGUUGCUUUACUUCAAUUUCUAGAUAAUUCGCAGGUAGGUCGCUCAAUACGUA [JR_Nu_ExcArginiB_Sub023]
The “apparent KD of K4 kissing-loop reporter” value of the first is 6.3-fold lower: 97.9 nM for the first, 615 nM for the second.

First: UUAGUUGAAAGUGAUACCAGACGAGUGAAGGGAAGAAAUUAAGUUGGAGUGAUGUUCCGCGUCCCUUGGCAGCACUUUGUAAUUU [Exclusion Theophylline B GF 22]
Second: UUUCGGUUCUGAGGAUAUUCGGACAAAUAUAGUGAUGUUGUAUAAGGAGGAGGGUGUUGGCAGUGCGGAGAAGGCAGACCACGAU [ExFMNB.X]
The “apparent KD of K4 kissing-loop reporter” value of the first is 6-fold lower: 125 nM for the first, 747 nM for the second.

“GGGUUGAACUGAAGGAGCGAGAAAUAGAAAGUAAGAAGAUAAGCUAGUGAUGUUAGAAAUUCUCAGGUAGGUCGCAGUAAGAAUU [V3]” and “CCCUCACGAGUGAUGUUCGUAGGGUACAGUCAGGAUAUCAUGCGGUUGAGAAGGGACAGAGAGGGCGGCGGCGGGUUGCUCAUCU [Isanausbe]” are within 1.5-fold of each other in “apparent KD of K4 kissing-loop reporter” value: 354 nM for the first, 325 nM for the second.

With “GAUAUAGUGAUGUUAUAUACUGAUAGACAACGAGGACCGGUACGGCCGCCACUCGAGAGGGUGAAAAUGAUGAUAAAAUAAUGAU [#02 K4 Tryptophan A Exclusion]” the “apparent KD of K4 kissing-loop reporter” value was 333 nM.

Same assay, conditions: Eterna round: R107; input ligand: theophylline 20 uM

First: CAUAGACAAGUGAUGUUUGUCAUAACCGAAGGAGCGUCGUUGAAGACAGGUAGGUCGCGGAUUAAUUUAGAUUAUAUUCUUUUUA [JR_SSArginiA_Sub020]
Second: GCAUCCAUGGCAGGAUAUAGGUUCGUGGAGUGAUGUUCCAUAGCCCGAGUGAUGUUCGUUAUCCACCUAGAAGGGCCAUGGAUGC [whbob_Ex_FMNB__2th212]
The “apparent KD of K4 kissing-loop reporter” value of the first is 2.7-fold higher: 567 nM for the first, 211 nM for the second.

Going from “ACCCAAGCCCAUCGCGCAGUGAUGUUGUCGCGAGGACCGGUACGGCCGCCACUCGAUAGCAGUGGCAACGUCAUCAUAAUCGAUU [theeternabot_exclusion_KL_Trp_A_50]” to “UCGAAAUGCGUCUCCUAGUUACUCCGGGAAGGAGCGUGGAUAACCGCAGGUAGGUCGCCCGGAAGCCGGACCAGUGAUGUUGGUC [Exclusion Arginine A Gf 29]”, the “apparent KD of K4 kissing-loop reporter” value falls from 299 nM to 186 nM (1.6-fold).

Going from “GGUAGCAUGGCGGCCGCCACUCGCAUCACAGGCCAUUAACCGCCCUCGUAAAGUGAUGUUUUACAGAGGACCGGGCCAUGCUACC” to “UAAGAAUAAGUAGCAGUGAUGUUGCUACUACGAGGACCGGUACGGCCGCCACUCGAGUCCUCGAAACAUCACUGAACGAGGAAUA [(H,1)-(H,2)-(Trp1)-(Trp2)-(T)'-(H)'-(T)'']”, the “apparent KD of K4 kissing-loop reporter” value falls from 323 nM to 136 nM (2.4-fold).

Compared with “UGAUACCAGGCGGCCGCCACUCCUACAGGUCAAAGACCUGUAGAACUGGUUUUUUAGUGAUGUUGGAGGACCGGGCCUGGUAUCU [FiskerMod 30 - Jieux - Exclusion - Tryptophan B]”, “UGGAGUUGACGAAAAGUCAACUCCUGAGAUACCAGUGACGAAAGUCACCCUUGGCAGCUCACUGCCAGUGAUGUUGGAACUAAAG [#02 K4 Theophylline A Same State]” is 1.5-fold higher in “apparent KD of K4 kissing-loop reporter” value: 296 nM for the first, 452 nM for the second.

Going from “AUUAUAUUGUGAAGGAGCGCGAAUAGCAGUGAUGUUGCUAUCAAACGAUAUAUUAUUUACACGCAGGUAGGUCGCACAAUAUAUA [JR_Nu_SSArginiB_Sub022]” to “UGCAUGCUUGGAGUGAUGUUCCAAGAUGAUACCAGUGCUUUUUUGCACCCUUGGCAGCGUCUGAUUGCAUGCACGUCGAAAGACG”, the “apparent KD of K4 kissing-loop reporter” value rises from 124 nM to 490 nM (4-fold).

“GGUCCGCGGUCGGCCGCCACUGAACAAGACCAGUGAUGUUGGAUCUUCCAGUGCGUUGGCUUUAACAGGACCGGGACCGUGGAGC [Titia]” and “UGAUACCAGGCGGCCGCCACUCCCGCAGGUCAAAGACCUGCGAAGCUGGUUCUCCAGUGAUGUUGGAGGACCGGGCCUGGUAUCU [FiskerMod 26 - Jieux - Exclusion - Tryptophan B]” are within 1.5-fold of each other in “apparent KD of K4 kissing-loop reporter” value: 140 nM for the first, 168 nM for the second.

Compared with “AACCCAUGACUGGAUACCAGACUAUACAUGCUGAGUGAUGUUUAGCGGAGUCAUCUCUCGGUCCCUUGGCAGCCAACGUCACGCG [theeternabot_sameState_KL_Theo_B_33]”, “UUGUUUUACUGAAGGAGCGGCAAUUGAUACGUAGAUAUAGUGAUGUUAUAUAAGAUAGAGAGCCAGGUAGGUCGCAGAUUUUUUU [ExArgB.V]” is 2.2-fold lower in “apparent KD of K4 kissing-loop reporter” value: 403 nM for the first, 185 nM for the second.

Going from “AAUAAGUGUCAGCGAGUGAUGUUCGACGAUACCAGCCUCGAUAGAGGCCCUUGGCAGCGUAACGCAUGCCAAACUGGCACAAUAA [#SwitchBubble 7 #K4Early]” to “GGUGUGCCAGUGAUGUUGGCAUAAACUGAAGGAGCGCGUGAAAACGCAGGUAGGUCGCAGAACCUUGCCAACUAUUUUAUUCACC [Ex Arginine A K4 25]”, the “apparent KD of K4 kissing-loop reporter” value falls from 393 nM to 236 nM (1.7-fold).

Going from “AUGGUGGAGGAGUGAUGUUCUUGGAGUAGGUAGGAUAUGAGUGAUGUUAGAAGGAUCGGAGUGAUGUUCCAGGUGGUUGUGUUGU [KL-SSFMN-A2]” to “AGUGAUGUUGUGUUAUGUUAGGGAAGUGAUCGAGGACCGGUACGGCCGCCACUCGAGUGAUGAGUGAGUGAUGUUUGUUUAGGGA [yytmullin]”, the “apparent KD of K4 kissing-loop reporter” value rises from 453 nM to 1070 nM (2.4-fold).

Going from “AAUUAAUGUAUAGAUUAUAUACAUUAAUCAGAGGAUAUGCAUUGUUGCAGAAGGCUGAAUGCAGUGAUGUUGCAAUGGAAAUUUA [JR_SSFMNA_Sub004]” to “UGGUUAAGCAGUGAUGUUGCAAGUAAUGAUACCAGUUAAGAAGAGAACCCUUGGCAGCAUAAAGUGCGCUCUGAUGAGUGUGCUU [whbob_SS_Theo_A_w54]”, the “apparent KD of K4 kissing-loop reporter” value falls from 376 nM to 239 nM (1.6-fold).

“GAUGAAGAGUCGUUAGUUAGGGCUUUCGAUACCAGCGCCCGUCCACGCCCUUGGCAGCGAUUGAAAGAGUGAUGUUCUGUCAGGA [theeternabot_exclusion_KL_Theo_A_31]” and “UUUAUAUUGUCGGCCGCCACUGGAUUAAUAUUUGUAUAAUCUAGUUCAAAGUGAUGUUUUGAGUCCAGGACCGGGACAUUUGAUA [JR_Nu_ExcTryptoB_Sub029]” are within 1.5-fold of each other in “apparent KD of K4 kissing-loop reporter” value: 741 nM for the first, 575 nM for the second.

“AGGACGUGAGAAGAUACCAGAGAAUAAUGCAGUGAUGUUGCUAAAUAUAAUUUAAUAUAACUCCCUUGGCAGCUUAAGUUAGUCU [Theophylline b same state]” and “UAGGGUUGAAAAGGAUAUUUACCCUAUGUCAACGAGUGAUGUUCGUGGACAUUAGGCACAACUCGUAAAGAAGGUUUCCAGACUC [theeternabot_sameState_KL_FMN_B_39]” are within 1.5-fold of each other in “apparent KD of K4 kissing-loop reporter” value: 115 nM for the first, 97.5 nM for the second.

Going from “GCGCGUGUUAAAGGAUAUAGCAGGUGAUACAAGAAAGUGAGUGAUGUUUAUGUAGAUGAUGAUAUGUUAGAAGGUUAACACGCGC [abcdefghijklmnopqr]” to “AAUAUAGUGAUGUUAUAUAAGAAGGAGUUACGAGGACCGGUACGGCCGCCACUCGAAACGAGUGAGGAUUUGGGAGAUUGGGUCC [SSTryptA.K]”, the “apparent KD of K4 kissing-loop reporter” value falls from 688 nM to 384 nM (1.8-fold).

“UGGAGUGCCUGGUCGUCACUAUGCCAACCACGAGGACCGGUACGGCCGCCACUCGUGAGGGAUAUUCAGAAAGUGAUGUUUUUUG [theeternabot_exclusion_KL_Trp_A_1]” and “UUUUAUUAAUACUUCUAGUGAUGUUAGAUACGAGGACCGGUACGGCCGCCACUCGCUUAUUGGUUUAUAUAUUUUAUAUUCUUUA [JR_SSTryptoA_Sub014]” are within 1.5-fold of each other in “apparent KD of K4 kissing-loop reporter” value: 450 nM for the first, 369 nM for the second.

Going from “AGAGGUCCCAGUGAUGUUGGUGCGUUUGGUCGAGGACCGGUACGGCCGCCACUCGUUCAUAGUAAGCCCUCUUUAGUGUUUCUAA [theeternabot_sameState_KL_Trp_A_9]” to “AGAUUCGACACGGCCGCCACUUGUGGUGGAUUAUCCUAUGUAAGACAUGAGUGAUGUUCAUGUACAAGGACCGGGUGUUGAGUCU [KL-XTryp-B4 #analogue]”, the “apparent KD of K4 kissing-loop reporter” value falls from 551 nM to 193 nM (2.9-fold).

“CGAGUCAAUUCAGAUACCAGCCAAUUAAAGUCGAGUGAUGUUCGACAAUGAACAUCCAAAGGCCCUUGGCAGCUGAAUUGGGAAC [Same State Theophylline B GF 18]” was tested, and the “apparent KD of K4 kissing-loop reporter” value was 228 nM.
